Tests used:
[1] = molecular target: PacII S subunit (HsdS), full length, C-terminal 6His tag (assembly analysis) (Pseudomonas alcaligenes NEB585); experiment: SEC; S subunit alone on size-exclusion chromatography; monomer-dimer equilibrium
[2] = molecular target: PacII S subunit (HsdS), full length, C-terminal 6His tag (assembly analysis) (Pseudomonas alcaligenes NEB585); experiment: SEC; only two subunits co-expressed in E. coli (M1 with S, or M2 with S), purified by the same strategy as the wild-type PacII MTase; SEC

stoichiometry N [1] | stoichiometry N [2] [M1 per S] | Substance
2 |  | PacII S subunit (HsdS), full length, C-terminal 6His tag (assembly analysis) (natural protein)
 | 1 | PacII M1 subunit (HsdM1), full length, construct without the 6His-SUMO tag (assembly analysis) (natural protein)
